Reference: patent US20210179727A1 (LYVGEN BIOPHARMA, published 2021)

B1: LYV378 (chimeric antibody, 9F12D9 in human IgG4SP / human kappa) (antibody, V domains shown)
VH: EVHLVESGGGLVQPGRSLKLSCAASGFTFTNYGLHWIRQAPTKGLEWVASISPSGGVTYYRDSVKGRFTISRDNGKTTLHLQMDSLRSEDTATYYCALPFLGWGGANWIAHWGQGTLVTVSS
VL: DIQMTQSPASLSASLGETVSIECLASEDISNDLAWYQQKSGKSPQLLIYFVDRLLDGVPSRFSGSGSGTRHSLKISGMQPEDEADYFCQQSYKYPPTFGGGTKLELKR
notes: Human IgG4 S228P and human kappa; elsewhere it is 9F12D9; also called 9F12D9 chimeric; 9F12D8
B2: LYV391 (chimeric antibody, 36G7B8 in hG4SP / human kappa) (antibody, human IgG4 S228P, kappa, V domains shown)
VH: QVQLQQPGAELVRPGASVKLSCKASGYIFISYWIHWLKQRPGRGLEWIGRIDPNNGGTKYNEKFRYKASLTVDKSSSTAYMQLSSLTSEDSAVYYCTKGVITTLVAGDYWGQGTTLTVSS
VL: DVVMTQIPLSLPVSIGDQASISCRSSQSLVYSYGNTYLHWFLQKPGQSPKLLIYNVSNRFSGVPDRFSGSGSGTDFTLRISRVEAEDLGVYFCSQGTHVPWTFGGGTKLEIKR
notes: Human IgG4 S228P and human kappa; also called 36G7B8 chimeric; 366788 (LYV391)
B3: LYV377 (chimeric antibody, 13F1A7 in human IgG4SP / human kappa) (antibody, V domains shown)
VH: EVQILETGGGLVKPGGSLRLSCATSGFNFNDSFMNWVRQAPGKGLEWVAQIRNKNYNYATYYTESLEGRVTISRDDSKSRVYLQVSSLRAEDSAVYYCTSYYYDGFADYFDYWGQGVMVTVSS
VL: DIKMTQSPSFLSASVGDSVTFTCKASQNIYIYLNWYQQKFGEAPKLLIYNTNNLQTGIPSRFSGSESGTVFTLTISSLQPEDVATYFCLQHSSRRTFGGGTKLELKR
notes: Human IgG4 S228P and human kappa; also called 13F1A7 chimeric; LTV377
B4: LYV379 (chimeric antibody, 17C5C2 in human IgG4SP / human kappa) (antibody, V domains shown)
VH: EVHILETGGGLVKPGGSLGLSCTTSGFNFNDYFMNWVRQAPGKGLEWVAQIRNGNYDYAAYYAESLEGRVTISRDDSKSSVNLQVSSLRAEDTAIYYCTSYYYDGHFDYFDNWGHGVMVTVSS
VL: DIKVTQSPSFLSASVGDRATINCKASQNLNKYLNWYQQKPGEPPKLLIYNTDNLYTGIPSRFSGSGSVADFTLTISGLQPEDVATYFCMQHNVRRTFGGGTKLELKR
notes: Human IgG4 S228P and human kappa; also called 17C5C2 chimeric
B5: LYV376 (chimeric antibody, 19G6D6 in human IgG4SP / human kappa) (antibody, V domains shown)
VH: EVQLQQSGPELVKPGASVKIPCKASGYTFTDYNMDWVKQSHGKSLEWIGDINPNNDISIYNQKFRGKATLTVDKSSSTAYMELRSLTSEDTAVYYCARRFAYWGQGTLVTVSA
VL: EIVLTQSPTTMAASPGEKITITCSASSSISSNYLHWYQQKPGSSPKVLIYRTSNLASGVPVRFSGSGSGTSYSLTIGTMEAEDVATYYCQQGSSIPYTFGGGTKLEIKR
notes: also called 19G6D6 chimeric; 1966D6 (LYV376)

target: T1, human CD40-His tag protein (Sino Biological Inc. Cat #10239-H08E) (human, UniProt P25942 21-193); assay: ELISA, plate coated with human CD40-His at 1 ug/ml, anti-human IgG-HRP, A450
T1 construct: also called human CD40 protein; CD40 protein; not shown: His tag
T1 sequence (P25942 21-193 limits assumed, stated change not applied): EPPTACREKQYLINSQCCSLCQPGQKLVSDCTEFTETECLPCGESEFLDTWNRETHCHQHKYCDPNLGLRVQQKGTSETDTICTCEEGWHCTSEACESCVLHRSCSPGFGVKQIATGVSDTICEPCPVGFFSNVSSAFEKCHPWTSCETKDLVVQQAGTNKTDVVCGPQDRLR
Procedure: CD40 protein (human CD40-His tag protein (Sino Biological Inc. Cat #10239-H08E) or rhesus monkey CD40-His (Sino Biological Inc. Cat #90097-C02H) was diluted in PBS to 1 ug/ml and used to coat an ELISA plate (Corning, Cat #9018, high binding) at a concentration of 50 ul/well. The plate was incubated overnight at 4° C. The plate was then decanted and washed with PBS-T, and 200 μl/well assay diluent (1×PBS/1% BSA/0.05% Tween-20/0.05% proclin 300) was added. After a 3 hour incubation at room temperature, the plate was washed with PBS-T three times. The testing antibodies were diluted in assay diluent to 0, 0.000003, 0.00003, 0.0003, 0.003, 0.03, and 0.3 ug/ml or approximately 0, 0.00002, 0.0002, 0.002, 0.02, 0.2 and 2 nM and then added to the plate (50 ul/well). The plate was incubated for one hour at 37° C. and then washed three times with PBS-T. Anti-human IgG-HRP conjugate (Bethyl Cat #A80-319P) at a 1:10,000 dilution was added to the plate (100 ul/well). The plate was incubated for 0.5 hour at 37° C., followed by washing with PBS-T three times. The TMB substrate solution was added (100 ul/well). The color was allowed to develop for 8 minutes before it was stopped with 100 ul/well 2N H₂SO₄. Absorbance at 450 nm was determined with an ELISA reader.

Q: With B1 as the binder, how does the “EC50 (read off the curve)” value read?
A: Its value is ~4 ng/mL.

Q: Which “EC50 (read off the curve)” value does the source give for B2 here?
A: The value was ~20 ng/mL.

Q: B3 was tested. Which “EC50 (read off the curve)” value did it give?
A: The value was ~4 ng/mL.

Q: Which “EC50 (read off the curve)” value does the source give for B4 here?
A: Its value is ~20 ng/mL.

Q: How did the “EC50 (read off the curve)” value turn out when B5 was run?
A: The value was ~3 ng/mL.

target: monkey CD40 protein (plate coat of the ELISA of Fig. 5) (cynomolgus monkey per paragraph 23; rhesus …); assay: ELISA on monkey CD40 protein coated on the plate, anti-human IgG-HRP, A450

Q: For B4, which “EC50 (read off the curve)” value is on record?
A: The value was ~5 ng/mL.
